In paper PMC7293033 (2020):

Target: His-FGF2, LMW FGF2 (residues 135-288, C211S/C229S) (human, UniProt P09038 135-288, C211S | C229S)
Assay: SPR

Chain of His-FGF2, LMW FGF2 (residues 135-288, C211S/C229S) (P09038 135-288 C211S/C229S): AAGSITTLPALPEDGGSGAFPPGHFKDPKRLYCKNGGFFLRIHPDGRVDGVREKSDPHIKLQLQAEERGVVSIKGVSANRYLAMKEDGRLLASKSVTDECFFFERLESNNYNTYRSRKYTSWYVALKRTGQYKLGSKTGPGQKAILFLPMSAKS

B1: His-API5 (apoptosis inhibitor 5, residues 1-504, isoform 2), wild type (natural protein)
chain: MPTVEELYRNYGILADATEQVGQHKDAYQVILDGVKGGTKEKRLAAQFIPKFFKHFPELADSAINAQLDLCEDEDVSIRRQAIKELPQFATGENLPRVADILTQLLQTDDSAEFNLVNNALLSIFKMDAKGTLGGLFSQILQGEDIVRERAIKFLSTKLKTLPDEVLTKEVEELILTESKKVLEDVTGEEFVLFMKILSGLKSLQTVSGRQQLVELVAEQADLEQTFNPSDPDCVDRLLQCTRQAVPLFSKNVHSTRFVTYFCEQVLPNLGTLTTPVEGLDIQLEVLKLLAEMSSFCGDMEKLETNLRKLFDKLLEYMPLPPEEAENGENAGNEEPKLQFSYVECLLYSFHQLGRKLPDFLTAKLNAEKLKDFKIRLQYFARGLQVYIRQLRLALQGKTGEALKTEENKIKVVALKITNNINVLIKDLFHIPPSYKSTVTLSWKPVQKVEIGQKRASEDTTSGSPPKKSSAGPKRDARQIYNPPSGKYSSNLGNFNYERSLQGK
  koff: 0.00474 s⁻¹
